The values that follow come from publication PMC5964162.

The target in this assay is Human complement C1q (human) (UniProt P02745). Kind of assay: ELISA. (In general: ELISA stands for enzyme-linked immunosorbent assay.)
UniProt P02745, sequence (P02745 23-245, chain 1 of 3): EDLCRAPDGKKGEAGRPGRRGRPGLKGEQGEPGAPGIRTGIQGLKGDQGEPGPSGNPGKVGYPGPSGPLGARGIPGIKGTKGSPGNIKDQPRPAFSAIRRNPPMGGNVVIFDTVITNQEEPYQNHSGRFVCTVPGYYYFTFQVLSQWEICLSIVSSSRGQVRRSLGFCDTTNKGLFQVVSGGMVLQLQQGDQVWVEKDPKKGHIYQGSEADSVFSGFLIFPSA
UniProt P02745, sequence (P02746 28-253, chain 2 of 3, further chain): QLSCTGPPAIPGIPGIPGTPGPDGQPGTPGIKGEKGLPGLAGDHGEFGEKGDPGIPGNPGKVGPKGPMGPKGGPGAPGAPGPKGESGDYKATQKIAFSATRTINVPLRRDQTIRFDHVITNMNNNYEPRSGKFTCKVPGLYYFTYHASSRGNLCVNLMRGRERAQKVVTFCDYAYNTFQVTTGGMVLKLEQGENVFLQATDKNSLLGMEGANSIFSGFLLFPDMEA
UniProt P02745, sequence (P02747 29-245, chain 3 of 3, further chain): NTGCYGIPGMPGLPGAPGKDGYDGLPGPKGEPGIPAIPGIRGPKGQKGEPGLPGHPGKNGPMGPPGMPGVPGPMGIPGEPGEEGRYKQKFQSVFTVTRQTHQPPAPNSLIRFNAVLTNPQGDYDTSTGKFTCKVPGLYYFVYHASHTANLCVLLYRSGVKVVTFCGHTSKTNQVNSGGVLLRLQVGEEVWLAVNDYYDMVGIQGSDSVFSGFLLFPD

“Recombinant SntA protein of Streptococcus suis (from UniProt Q8VUN9 1-813) (natural protein)” yielded a percent of C1q–IgG binding left with 50 µM SntA of 3.34%.
